Assay results taken from the supplement of paper PMC10567573.

B1: ESR2 (parent)
chain: KSCQACRLRKCYEVGMVKCGSRRE
B2: MLH1 (parent)
chain: YAHQMVRTDSREQKLDAFLQPLSK

Variants of: B1
Experiment: protein stability index of a GFP-peptide fusion (GPS, HEK-293T) (PSI 1-6); higher = more stable
Details: c terminus: a fixed tail appended
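Further: lentivirally expressed fusions sorted by FACS into six bins by GFP to DsRed ratio, PSI derived from sequencing read proportions per bin multiplied by bin number.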

Point of comparison: KSCQACRLHKCYEVGMVKCGSRRE [R9H], protein stability index 1.92. Against it:
- KSCQACRLRKCYYVGMVKCGSRRE [E13Y] — lower, 1.38
- KSCQACRLRKCYPVGMVKCGSRRE [E13P] — lower, 1.69
- KSCQACRLRKCYTVGMVKCGSRRE [E13T] — higher, 1.96
- KSCQACRLRKCYGVGMVKCGSRRE [E13G] — higher, 2.3
- KSCQACRLRKCYQVGMVKCGSRRE [E13Q] — lower, 1.7
- KSCQACRLRKCWEVGMVKCGSRRE [Y12W] — higher, 2.24
- KSCQACRLRKCGEVGMVKCGSRRE [Y12G] — higher, 2.36
- KSCQACRLRKCYEVGFVKCGSRRE [M16F] — higher, 2.1
- KSCQACRLRKCYEVGEVKCGSRRE [M16E] — lower, 1.84
- KSCQACRLRKCYEVGYVKCGSRRE [M16Y] — lower, 1.85
- KSCQACRLRKCYEVGTVKCGSRRE [M16T] — higher, 2.14
- KSCQACRLRKCYEVGMVKCISRRE [G20I] — higher, 2.16
- KSCQACRLRKCYEVGMVKCMSRRE [G20M] — lower, 1.73
- KSCQACRLRKCYEVGMVKCWSRRE [G20W] — lower, 1.48
- KKCQACRLRKCYEVGMVKCGSRRE [S2K] — higher, 2.02
- KPCQACRLRKCYEVGMVKCGSRRE [S2P] — lower, 1.86
- KSCQACRLRKCYEHGMVKCGSRRE [V14H] — higher, 4.01
- KSCQACRLRKCYEKGMVKCGSRRE [V14K] — higher, 2.5
- KSCQACRLRKCYEQGMVKCGSRRE [V14Q] — higher, 2.17
- HSCQACRLRKCYEVGMVKCGSRRE [K1H] — higher, 2.5
- ESCQACRLRKCYEVGMVKCGSRRE [K1E] — lower, 1.72
- TSCQACRLRKCYEVGMVKCGSRRE [K1T] — higher, 2.1
- GSCQACRLRKCYEVGMVKCGSRRE [K1G] — higher, 2.71
- KSCQACRLRKCYEVGMVKCGSRRV [E24V] — higher, 2.19
- KSCQACRLRKCYEVGMVKCGSRRH [E24H] — lower, 1.68
- KSCQACRLRKCYEVGMVKCGSRRT [E24T] — higher, 2.12
- KSCQACRLRKCYEVGMVKCGSRRS [E24S] — lower, 1.79
- KSGQACRLRKCYEVGMVKCGSRRE [C3G] — higher, 2.97
- KSKQACRLRKCYEVGMVKCGSRRE [C3K] — higher, 2.59
- KSIQACRLRKCYEVGMVKCGSRRE [C3I] — higher, 2.39
- KSSQACRLRKCYEVGMVKCGSRRE [C3S] — higher, 3.24
- KSCQACRLRKCYEVGMVKCGPRRE [S21P] — higher, 2.29
- KSCQACRLRKCYEVGMVKCGNRRE [S21N] — higher, 2.57
- KSCQACRLRKCYEVGMVKCGARRE [S21A] — higher, 2.24
- KSCQACRLRKCYEVGMVKCGSERE [R22E] — higher, 2.98
- KSCQACRLRKCYEVGMVKCGSNRE [R22N] — lower, 1.91
- KSCQACRLRKCYEVGMVKCGSWRE [R22W] — higher, 2.05
- KSCQACRLRKCYEVGMVKCGSPRE [R22P] — higher, 2.33
- KSCQACRLRKCYEVGMAKCGSRRE [V17A] — higher, 2.41
- KSCQACRLRKCYEVGMFKCGSRRE [V17F] — higher, 1.94
- KSCQACRLRKCYEVGMGKCGSRRE [V17G] — higher, 2.27
- KSCQACRLRKCYEVGMTKCGSRRE [V17T] — higher, 1.98
- KSCVACRLRKCYEVGMVKCGSRRE [Q4V] — higher, 2.04
- KSCCACRLRKCYEVGMVKCGSRRE [Q4C] — lower, 1.72
- KSCEACRLRKCYEVGMVKCGSRRE [Q4E] — higher, 2.1
- KSCFACRLRKCYEVGMVKCGSRRE [Q4F] — lower, 1.32
- KSCLACRLRKCYEVGMVKCGSRRE [Q4L] — higher, 2.15
- KSCPACRLRKCYEVGMVKCGSRRE [Q4P] — lower, 1.68
- KSCQACRLRNCYEVGMVKCGSRRE [K10N] — higher, 2.27
- KSCQACRLRPCYEVGMVKCGSRRE [K10P] — higher, 1.94
- KSCQACRLRICYEVGMVKCGSRRE [K10I] — higher, 1.98
- KSCQACRLRKMYEVGMVKCGSRRE [C11M] — higher, 2.6
- KSCQACRLRKLYEVGMVKCGSRRE [C11L] — higher, 2.31
- KSCQACRLRKWYEVGMVKCGSRRE [C11W] — higher, 2
- KSCQACRLRKCYEVNMVKCGSRRE [G15N] — higher, 1.97
- KSCQACRLRKCYEVCMVKCGSRRE [G15C] — higher, 2.25
- KSCQACRLRKCYEVYMVKCGSRRE [G15Y] — lower, 1.81
- KSCQACRLRKCYEVLMVKCGSRRE [G15L] — lower, 1.55
- KSCQACRLRKCYEVMMVKCGSRRE [G15M] — higher, 1.96
- KSCQACRLRKCYEVGMVTCGSRRE [K18T] — lower, 1.82
- KSCQACRLRKCYEVGMVPCGSRRE [K18P] — lower, 1.72
- KSCQACRLRKCYEVGMVKWGSRRE [C19W] — higher, 3.71
- KSCQACRLRKCYEVGMVKCGSRNE [R23N] — higher, 2.17
- KSCQACRLRKCYEVGMVKCGSRQE [R23Q] — higher, 2.21
- KSCQACRLRKCYEVGMVKCGSRWE [R23W] — lower, 1.67
- KSCQACRYRKCYEVGMVKCGSRRE [L8Y] — higher, 2.35
- KSCQQCRLRKCYEVGMVKCGSRRE [A5Q] — higher, 2.11
- KSCQYCRLRKCYEVGMVKCGSRRE [A5Y] — lower, 1.64
- KSCQLCRLRKCYEVGMVKCGSRRE [A5L] — higher, 2.29
- KSCQHCRLRKCYEVGMVKCGSRRE [A5H] — higher, 2.15
- KSCQACRLTKCYEVGMVKCGSRRE [R9T] — higher, 2.66
- KSCQACRLWKCYEVGMVKCGSRRE [R9W] — higher, 1.93
- KSCQACRLMKCYEVGMVKCGSRRE [R9M] — higher, 1.93
- KSCQACRLFKCYEVGMVKCGSRRE [R9F] — higher, 2.56
- KSCQACDLRKCYEVGMVKCGSRRE [R7D] — higher, 2.06
- KSCQACHLRKCYEVGMVKCGSRRE [R7H] — lower, 1.81
- KSCQACQLRKCYEVGMVKCGSRRE [R7Q] — lower, 1.66
- KSCQACPLRKCYEVGMVKCGSRRE [R7P] — higher, 2.17
- KSCQACFLRKCYEVGMVKCGSRRE [R7F] — higher, 2.29
- KSCQAYRLRKCYEVGMVKCGSRRE [C6Y] — higher, 2.28
- KSCQAHRLRKCYEVGMVKCGSRRE [C6H] — higher, 2.81
- KSCQAFRLRKCYEVGMVKCGSRRE [C6F] — higher, 1.96
- KSCQAPRLRKCYEVGMVKCGSRRE [C6P] — higher, 3.03

Variants of: B2
Experiment: as above
Details: c terminus: a fixed tail appended

Point of comparison: YAHQMVRTDSREQKLDAFLQSLSK [P21S], protein stability index 3. Against it:
- YAHQMVRTDSREQKLDAFLDPLSK [Q20D] — higher, 3.39
- YAHQMVRTDSREQKLDAFLRPLSK [Q20R] — lower, 2.5
- YAHQMVRTDSREQKLCAFLQPLSK [D16C] — lower, 1.99
- YAHQMVRTDSREQKLKAFLQPLSK [D16K] — lower, 2.63
- YAHQMVRTDSREQKLVAFLQPLSK [D16V] — lower, 1.66
- YAHQMVRTDSREQKLAAFLQPLSK [D16A] — lower, 2.69
- YAHQMVRTDSREQKLDAFLQDLSK [P21D] — lower, 2.84
- YAHQMVRTDSREQKLDAFLQILSK [P21I] — lower, 2.57
- YAHQMVRTDSREQKLDAFLQCLSK [P21C] — lower, 2.2
